Two substances from US20110059060A1 can be followed below.

For this assay, the target named is thuricin CD (Bacillus thuringiensis DPC 6431).

The substance pepsin (enzyme) returned an antimicrobial activity after enzyme treatment (well diffusion assay, C. difficile ATCC 43593) (% reduction in activity) of 50.
As for trypsin (enzyme), the figure is 20.
